# Results as given in publication PMC11389407.
# How the values were obtained:
# [1] = biological target: F_((ecto))-K394R (F_((ecto))-WT with substitution of Lys394 with Arg394) fused with the T4 fibritin trimerization domain (respiratory syncytial virus (strain of the construct not stated) | T4) (UniProt P03420); assay: MST; RED-NHS-labelled F_((ecto)) protein at 50 nM pretreated with DMSO, IGF1R titrated from 30.6 pM to 2 µM, PBS, Monolith NT.115
# [2] = biological target: F_((ecto))-WT (1–513 aa) fused with the T4 fibritin trimerization domain (respiratory syncytial virus (strain of the construct not stated) | T4) (UniProt P03420); assay: as above
substance,measurement,setting,value
extracellular domain of the human IGF1R protein (Met 1−Asn 932) (from UniProt P08069 31-932) (domain or fragment),Kd,[1],12 nM
same,Kd,[2],11 nM
